Assay results from patent US20130345294.

Target: GAVP(N56K+C71V) N56K,C71V (VIVID numbering) (artificial) (UniProt Q04206)
Assay: cell_activity

Sequence of UniProt Q04206 (Q04206 whole entry, stated change not applied): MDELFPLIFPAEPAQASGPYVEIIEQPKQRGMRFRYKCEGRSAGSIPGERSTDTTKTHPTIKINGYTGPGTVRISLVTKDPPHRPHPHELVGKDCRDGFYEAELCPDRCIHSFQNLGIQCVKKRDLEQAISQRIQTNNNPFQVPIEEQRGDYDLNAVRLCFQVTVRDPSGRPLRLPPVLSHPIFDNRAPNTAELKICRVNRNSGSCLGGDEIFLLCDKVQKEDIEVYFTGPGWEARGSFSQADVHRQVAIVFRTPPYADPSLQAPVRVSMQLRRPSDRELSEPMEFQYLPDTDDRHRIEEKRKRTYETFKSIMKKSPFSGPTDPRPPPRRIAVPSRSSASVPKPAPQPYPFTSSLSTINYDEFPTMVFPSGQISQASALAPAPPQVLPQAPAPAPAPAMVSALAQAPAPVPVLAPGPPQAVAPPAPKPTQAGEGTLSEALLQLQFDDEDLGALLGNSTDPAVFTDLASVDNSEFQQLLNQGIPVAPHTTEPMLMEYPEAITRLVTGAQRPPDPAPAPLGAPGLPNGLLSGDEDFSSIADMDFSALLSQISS

| Substance | activity (HEK293, Gluc after 12 h light, 30-fold after 3 h) | activity (HEK293 light/dark induction, also active in NIH3T3 and COS-7) |
| --- | --- | --- |
| TCTAGACGGAGTACTGTCCTCCGAGCGGAGTACTGTCCTCCGACTCGAGCGGAGTACTGTCCTCCGATCGGAGTACTGTCCTCCGCGAATTCCGGAGTACTGTCCTCCGAAGACGCTAGCGGGGGGCTATAAAAGGGGGTGGGGGCGTTCGTCCTCACTCTAGATCTGCGATCTAAGTAAGCTTGGCCACCATGGGAGTCAAAGTTCTGTTTGCCCTGATCTGCATCGCTGTGGCCGAGGCCAAGCCCACCGAGAACAACGAAGACTTCAACATCGTGGCCGTGGCCAGCAACTTCGCGACCACGGATCTCGATGCTGACCGCGGGAAGTTGCCCGGCAAGAAGCTGCCGCTGGAGGTGCTCAAAGAGATGGAAGCCAATGCCCGGAAAGCTGGCTGCACCAGGGGCTGTCTGATCTGCCTGTCCCACATCAAGTGCACGCCCAAGATGAAGAAGTTCATCCCAGGACGCTGCCACACCTACGAAGGCGACAAAGAGTCCGCACAGGGCGGCATAGGCGAGGCGATCGTCGACATTCCTGAGATTCCTGGGTTCAAGGACTTGGAGCCCATGGAGCAGTTCATCGCACAGGTCGATCTGTGTGTGGACTGCACAACTGGCTGCCTCAAAGGGCTTGCCAACGTGCAGTGTTCTGACCTGCTCAAGAAGTGGCTGCCGCAACGCTGTGCGACCTTTGCCAGCAAGATCCAGGGCCAGGTGGACAAGATCAAGGGGGCCGGTGGTGACTAA (double strand) [5xUASG-TATA-Gluc] | 100 fold | – |
| 5xUASG-TATA-Fluc | – | 200 fold |
